Experiments:
mice = assay: Water maze test, scopolamine-caused spatial cognition impairment; type: in vivo, mouse
Method: The Moths water maze set up contained a round water pool (45 cm deep with a diameter of 90 cm) filled with milk-mixed water (22±1° C.) to a depth of 30 cm. It was placed in a dark, sound-shielded room in which various visual cues were established. A white platform (6 cm in diameter, 29 cm in height) was inside the pool, with the top thereof 1 cm below the water surface in the center of one quadrant of the maze
On day 1, the mice were trained to swim for 60 sec. Subsequently, the training was conducted four times a day for four consecutive days, with the platform inside the pool. When the mouse reached the platform, it was allowed to sit on the platform only for 10 sec. If the failed in reaching the platform within 60 sec, it was guided to reach the platform and stay for 10 sec thereon. Afterwards, the mouse was returned back to the home cage and allowed to dry its body under an IR lamp. The time interval between trials was 30 sec.
The time to reach the hidden platform was recorded in each trial using a video camera-based Ethovision System (Nodulus, Wageningen, the Netherlands).
For each training trial, the mouse was placed into the pool at one quadrant at positions which were different day by day. One day after the final training trial, the mouse was evaluated. In this regard, after the platform was removed, the mouse was allowed to swim for 60 sec in search for the platform, and the time to swim in the quadrant where the platform was located was recorded. Gintonin (25, 50, or 100 mg/kg, p.o.) in physiological saline was administered 1 hr before test, every day. Tacrine (10 mg/kg, p.o.) was used as a positive control. Memory impairment was induced by scopolamine (0.9 mg/kg i.p.) 30 min after gintonin administration. For a negative control, only physiological saline was administered.
An examination was made of simple spatial reasoning. To this end, while the mice were allowed to swim in the absence of the rescue platform in the pool, the time period during which the mice swam in the quadrant where the rescue platform had been located was recorded.

LPA6 receptor = molecular target: T1, LPA6 receptor (Homo sapiens, UniProt P43657); assay: Intracellular free Ca2+ (Fura-2AM) in LPA6-expressing B103 cells; type: cell-based
T1 construct: host or cells: B103 rat neuroblastoma cells
T1 sequence (P43657 1-344): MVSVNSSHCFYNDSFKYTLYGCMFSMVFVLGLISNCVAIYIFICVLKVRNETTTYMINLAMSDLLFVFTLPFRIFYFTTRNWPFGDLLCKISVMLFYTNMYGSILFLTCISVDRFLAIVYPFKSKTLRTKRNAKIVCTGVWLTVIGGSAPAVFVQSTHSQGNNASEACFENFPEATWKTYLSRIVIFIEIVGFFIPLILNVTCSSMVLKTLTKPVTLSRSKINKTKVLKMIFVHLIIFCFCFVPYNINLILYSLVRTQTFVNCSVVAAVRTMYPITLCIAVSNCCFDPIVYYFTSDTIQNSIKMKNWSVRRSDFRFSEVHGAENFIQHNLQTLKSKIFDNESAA
From the text: LPA family receptors are endogenous to cells of most organs. B103 rat neuroblastoma cells, known as LPA receptor-null cells (Valentine et al., Biochim Biophys Acta 1780. 597-605) were transiently transfected with a plasmid (vector) carrying one of genes coding for LPA1(edg-2), LPA2(edg-4), LPA3(edg-7), LPA4, LPA5 and LPA6 receptors or a plasmid carrying none of them (empty vector). Two or three days after transfection, the cells are suspended, and made permeable. Then, the permeable cells are treated with Fura-2AM, a fluorescent dye binding to calcium, and then with gintonin, followed by spectrofluorephotometry to examine whether gintonin induces an increase in intracellular free Ca^2+ level. […]

B1: gintonin: ginseng-derived glycolipoprotein; structural protein of ginseng major latex-like protein (MLP151) and ribonuclease-like storage proteins; crude gintonin used in tests (protein)
chain 1: MGLTGKLICQTGIKSDGDVFHELFGTRPHHVPNITPANIQGCDLHEGEFGKVGSVVIWNYSIDGNAMIAKEEIVAIDEEDKSVTFKVVEGHLFEEFKSIVFSVHVDTKGEDNLVTWSIDYEKLNESVKDPTSYLDFLLSVTRDIEAHHLPK
chain 2: RSDYPWAMFALRLQWPAGFCEVNNACDTKSLLNTFTIHGLYPYNAKGTPALYCDGTAFDVNSVSDFLAEMHLAWPSHETNTEDIQFWEHEWKKHGRCSEALLKQTDYFRTALAFRKAFDIVGLLNQEGIYPNNDLYRPKMIKEAIKKHLNAVPEIDFTKNENSEYVLTDINVCVNQQATRFVDCPTDDATDDYRLKFVRLPSKMKFADPRTNSII
- swimming time in the quadrant where the platform had been located (mice; gintonin 25 mg/kg p.o. + scopolamine): 21.33 ± 3.13 s
- swimming time in the quadrant where the platform had been located (mice; gintonin 50 mg/kg p.o. + scopolamine): 24.53 ± 3.91 s
- swimming time in the quadrant where the platform had been located (mice; gintonin 100 mg/kg p.o. + scopolamine): 25.17 ± 4.43 s
- latent time to reach hidden platform (mice; gintonin 25, 50, 100 mg/kg p.o. + scopolamine, day 1 to day 4): reduce the latent time extended by scopolamine significantly and in a dose-dependent manner
- gintonin activity on intracellular calcium level (LPA6 receptor): No gintonin activity was detected
